In general, IC50 refers to the concentration needed to halve the response being measured.

This is an account of results in patent US11357817B2, “Immunoproteasome inhibitor” (The Regents of the University of California, priority 2017, dated 2022).

For test [1], the target named is Succinyl-Leu-Leu-Val-Tyr-aminocoumarin (Artificial Sequence).
Test [2] deals with z-LLE-AMC.
The target in test [3] is z-LRR-AMC.
Test [4] relates to 20S Plasmodium proteasome (Pf20S) β5 subunit. Kind of test: Proteasome activity assay, Pf20S β5 (suc-LLVY-AMC). The class given is biochemical, Plasmodium falciparum. The settings on record: 150 nM inhibitor. On the procedure:
(§1) Asynchronous P. falciparum cultures were grown up to 4-5% parasitemia, in 300 mL of RPMI media at 5.0% hematocrit. Cultures were then transferred to 50 mL conical tubes, pelleted via centrifugation at 800 g for 5 min, and washed once with 1×PBS and pelleted again as above. The PBS was removed and lysis buffer (0.15% saponin in PBS) was added on ice in 10 pellet volumes. Upon lysis of red blood cells, indicated by a clear red supernatant, the lysed cultures were centrifuged at 3200×g for 12 minutes at 4° C. The supernatant was removed by aspiration and the cells were washed twice using chilled PBS in microcentrifuge tubes. The cell pellets were then incubated on ice for 1 hour with occasional vortexing in a buffer consisting of 20 mM Tris-HCl pH 7.5, 5 mM MgCl2, 1 mM DTT, 100 μM E-64 and 1 mM AEBSF. This sample was then subjected to 3 rounds of freezing (−80° C.) and thawing (37° C.) and centrifugation at 6000×g for 10 min. The supernatant containing soluble P. falciparum protein was quantified by the BCA method (Pierce).
P. falciparum proteasome was enriched by two-chromatographic steps reported previously (10). In brief, 10 mg of P. falciparum protein was concentrated to 1 mL using a 100 kDa centrifugal filter unit (Amicon) and loaded onto a 5 mL anion exchange HiTrap DEAE FF column (GE Healthcare). […] The AMC fluorophore release was monitored at Ex 340/Em 465 nm at 24° C. using a Synergy HTX multi-mode reader (Biotek). […] Proteins were eluted using 20 mM Tris-HCl pH 7.5, 100 mM NaCl, 10% glycerol and 1 mL fractions were collected, evaluated for protease activity and pooled.
To estimate the concentration of Pf20S in the final pooled sample, protein was denatured and loaded into a 4-12% Bis-Tris Plus gel (Thermo Fisher Scientific) beside 60 to 100 ng of human constitutive proteasome (Boston Biochem). […] For inhibition assays, inhibitor and substrate were added simultaneously to the enzyme and the rate of AMC release was determined from 60 to 120 minutes and compared to a DMSO control.

The test system of test [5] is 20S Plasmodium proteasome (Pf20S) β1 subunit. Kind of test: Proteasome activity assay, Pf20S β1 (z-LLE-AMC). The class given is biochemical, Plasmodium falciparum. The conditions noted are these: 150 nM inhibitor. On the procedure:
as §1, with “Cultures were then transferred to 50 mL conical tubes, pelleted via centrifugation at 800 g for 5 min, and washed once with 1×PBS and pelleted again as above.” left out
(§2) P. falciparum proteasome was enriched by two-chromatographic steps reported previously (10). […] The AMC fluorophore release was monitored at Ex 340/Em 465 nm at 24° C. using a Synergy HTX multi-mode reader (Biotek). […] Proteins were eluted using 20 mM Tris-HCl pH 7.5, 100 mM NaCl, 10% glycerol and 1 mL fractions were collected, evaluated for protease activity and pooled. […]

Test [6] relates to 20S Plasmodium proteasome (Pf20S) β2 subunit. The experiment in a line: Proteasome activity assay, Pf20S β2 (z-LRR-AMC). The settings on record: 150 nM inhibitor. The class given is biochemical. Here is the method: as §1, with “Cultures were then transferred to 50 mL conical tubes, pelleted via centrifugation at 800 g for 5 min, and washed once with 1×PBS and pelleted again as above.” left out
as §2

Test [7] concerns the target T1, c20S (Homo sapiens, UniProt P20618+P28074).
T1 construct: purchased Boston Biochem
Kind of test: Calculation of inhibition constants (inactivation kinetics), c20S. The class given is biochemical. The settings on record: c20S. Here is the method:
(§3) The rate of AMC release was calculated in the presence of serial dilution of each inhibitor. The rate of product formation were calculated at 30 min intervals for 4 hours, and normalized to activity DMSO control to calculate inactivation curves. Kobs values for each inhibitor concentration were calculated from inactivation curves, and inhibition constants KI and kinact were calculated by non-linear regression of Kobs and inhibitor concentration using GraphPad Prism 6 software.

The target in test [8] is Pf20S (Plasmodium falciparum, UniProt A0A5K1K7U1+Q8IJT1). Kind of test: Calculation of inhibition constants (inactivation kinetics), Pf20S. The class given is biochemical. The conditions noted are these: Pf20S. Here is the method: as §3
Test [9] concerns ABC16-Monster yeast cells. The experiment in a line: microbe, parasite or virus in culture. The class given is cell-based, S. cerevisiae. The settings on record: Saccharomyces cerevisiae. Here is the method:
ABC16-Monster yeast cells (15) were inoculated into 5 ml of liquid YPD media and grown to saturation (OD600>1.0) overnight at 200 RPM in a shaking incubator at 30° C. Cultures were diluted to OD600 0.005 to log phase. 100 μl of yeast cells were added to a 96-well plate and incubated with compound starting with a concentration of 150 μM, followed by 1:2 serial dilutions. An initial reading of OD600 (t=0 hrs) was recorded using a Synergy HT spectrophotometer, and cells were grown for a period of 18 hours at 30° C. After incubation, plates were read at OD600. Cells grown in the absence of compound were used as a negative control. Percent growth was calculated using the formula Ab600treated/Ab600control×100
IC50 values were determined by first subtracting the OD600 values at t=0 from those of the final reading and then using Graphpad Prism to calculate nonlinear regression on log(inhibitor) vs. response with variable slope (four parameters).
Each selection was cultured under vigorous shaking until the culture reached saturation. […] Single colonies were isolated, and IC50 assays were performed to determine the degree of evolved resistance vs. that of the parental strain.

Test [10] relates to Dd2 parasites. The experiment in a line: Artemisinin synergy, 72 hour SYBR green assay with co-treatment. The class given is cell-based, Plasmodium falciparum. Here is the method: Compound susceptibility was measured using the malaria SYBR Green I-based fluorescence assay (32). Asynchronous P. falciparum parasites (Dd2 strain) were cultured in standard conditions before being plated for the assays. Each compound was tested over 72 hours in technical duplicates on a twelve-point concentration curve prepared by three-fold dilution from 6.7 μM to 0.11 nM. At least three independent experiments were carried out for IC50 determination. Artemisinin and chloroquine were used as controls. IC50 values were obtained using normalized fluorescence intensity from SYBR green I and analyzed via non-linear variable slope four-parameter regression curve-fitting model in Prism 6 (GraphPad Software Inc).

Test [11] deals with 20S Plasmodium proteasome (Pf20S), enriched from P. falciparum schizont lysate (Plasmodium falciparum).
For test [12], the target named is human constitutive 20S proteasome (human).
The target of test [13] is β5 subunit of the S. cerevisiae 20S proteasome (PRE2) with M45I (M120I in the pro-protein), lineage 2 (Saccharomyces cerevisiae).
Test [14] has as its target β5 subunit of the S. cerevisiae 20S proteasome (PRE2), wild type (Saccharomyces cerevisiae).
Test [15] concerns the target 20S Plasmodium proteasome (Pf20S), enriched from P. falciparum schizont lysate (Plasmodium falciparum). The source holds these as a separate data set.
The target of test [16] is human constitutive 20S proteasome (human). This is another data set of the same source.
The target is the same in test [17]. The experiment in a line: inactivation kinetics of c20S, Suc-LLVY-AMC activity assay, non-linear regression of Kobs.
Test [18] addresses 20S Plasmodium proteasome (Pf20S), enriched from P. falciparum schizont lysate (Plasmodium falciparum). Kind of test: inactivation kinetics of Pf20S, Suc-LLVY-AMC activity assay, non-linear regression of Kobs.

In test [1], “20S Plasmodium proteasome (Pf20S), enriched from P. falciparum schizont lysate (enzyme)” registered a hydrolysis of suc-LLVY-AMC (AMC release) (fold of the c20S rate) of less than 2. In [2], this molecule returned a hydrolysis of z-LLE-AMC (AMC release) (fold lower than c20S) of 19. In addition, the hydrolysis of z-LRR-AMC (AMC release) (fold of the c20S rate) in test [3] was less than 2.
For `CCCCCC(=O)N[C@H](C(=O)N[C@@H](CCS(C)(=O)=O)C(=O)N[C@@H](CC(C)C)C(=O)[C@@]1(C)CO1)C(C)C` [Carmaphycin B], the “Pf20S β5 activity reduced” value in test [4] worked out at 45%. In addition, in test [5], the “Pf20S β1 activity reduced” value is given as 16%. Further, the “Pf20S β2 activity reduced” value in [6] is 29%. In addition, the Ki in test [7] was 0.375 µM; in test [8], 0.223 µM. Besides, the IC50 in [9] (GM (parental ABC16-Monster strain)) was 24.3 µM; in [9] (resistant Lineage 1), greater than 150 µM; in [9] (resistant Lineage 2), 52.7 µM; in [9] (resistant Lineage 3) it was greater than 100 µM. In addition, the “sensitization to ART” value was 2 fold in test [10] (co-treatment with ART and 0.5 nM of the compound); 3 fold in test [10] (co-treatment with ART and 1 nM of the compound).
In the case of Carmaphycin B (peptide), the Kinact worked out at 0.000192 s⁻¹ in test [11] and 0.00168 s⁻¹ in test [12]. In addition, the Kinact/KI in test [11] amounted to 864 M⁻¹ s⁻¹; in test [12] it was 4480 M⁻¹ s⁻¹. This molecule returned an average IC50 (uM) of yeast growth, resistant lineage 2 in [13] of 52.7 µM. Further, the average IC50 (uM) of yeast growth, parental GM strain in [14] was found to be 24.3 µM. In [15], this molecule gave an inhibition of β5, β1 and β2 activity at 150 nM inhibitor (% reduction of β5 activity) of 45. In addition, in test [16], the inhibition of β5, β1 and β2 activity at 150 nM inhibitor (% inhibition of β5 activity) stood at 98. Further, the Ki was determined as 0.375 µM in [17] and 0.223 µM in test [18].
